T1: GST-Fkbp5 (UniProt Q64378 1-456)
T1 sequence (looked up): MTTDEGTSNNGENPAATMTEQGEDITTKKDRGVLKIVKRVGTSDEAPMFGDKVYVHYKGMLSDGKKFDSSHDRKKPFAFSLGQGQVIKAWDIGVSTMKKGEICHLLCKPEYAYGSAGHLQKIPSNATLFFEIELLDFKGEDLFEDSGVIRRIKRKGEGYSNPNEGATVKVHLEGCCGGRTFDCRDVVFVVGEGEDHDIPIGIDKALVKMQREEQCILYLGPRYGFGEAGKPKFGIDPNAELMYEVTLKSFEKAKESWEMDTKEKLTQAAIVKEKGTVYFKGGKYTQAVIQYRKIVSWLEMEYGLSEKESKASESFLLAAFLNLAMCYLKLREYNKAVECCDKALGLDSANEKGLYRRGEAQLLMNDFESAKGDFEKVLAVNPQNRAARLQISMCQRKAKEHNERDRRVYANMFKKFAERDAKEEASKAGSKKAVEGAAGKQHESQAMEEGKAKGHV

T2: GST-Fkbp5-W90L (UniProt Q64378 1-456, W90L)
T2 sequence (looked up): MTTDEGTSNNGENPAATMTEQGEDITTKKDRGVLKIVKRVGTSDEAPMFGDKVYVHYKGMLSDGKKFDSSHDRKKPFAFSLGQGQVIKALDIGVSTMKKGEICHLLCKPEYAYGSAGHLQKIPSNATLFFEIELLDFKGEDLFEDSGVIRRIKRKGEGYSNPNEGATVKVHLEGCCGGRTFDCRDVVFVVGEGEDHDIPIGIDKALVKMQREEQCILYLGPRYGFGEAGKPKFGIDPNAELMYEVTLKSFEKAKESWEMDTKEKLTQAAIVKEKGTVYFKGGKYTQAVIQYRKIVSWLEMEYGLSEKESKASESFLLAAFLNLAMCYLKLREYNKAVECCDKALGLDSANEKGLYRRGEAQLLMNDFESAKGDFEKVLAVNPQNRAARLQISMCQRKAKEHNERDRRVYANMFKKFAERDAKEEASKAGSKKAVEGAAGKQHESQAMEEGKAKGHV

T3: GST-Fkbp5-Δ1 (UniProt Q64378 1-456, deletion of amino acids 50-138)
T3 sequence (looked up): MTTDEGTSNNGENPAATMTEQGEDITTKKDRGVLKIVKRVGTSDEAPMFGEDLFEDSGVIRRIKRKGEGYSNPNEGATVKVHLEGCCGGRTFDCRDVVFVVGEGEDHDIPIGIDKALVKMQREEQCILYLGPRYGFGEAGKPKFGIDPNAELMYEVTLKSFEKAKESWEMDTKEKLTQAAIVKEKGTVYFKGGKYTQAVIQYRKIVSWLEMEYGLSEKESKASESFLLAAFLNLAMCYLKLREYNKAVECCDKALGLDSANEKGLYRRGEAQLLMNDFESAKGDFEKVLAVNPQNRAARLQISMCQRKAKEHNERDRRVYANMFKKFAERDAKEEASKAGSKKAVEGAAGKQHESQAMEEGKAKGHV

T4: GST-Fkbp5-F130Y (UniProt Q64378 1-456, F130Y)
T4 sequence (looked up): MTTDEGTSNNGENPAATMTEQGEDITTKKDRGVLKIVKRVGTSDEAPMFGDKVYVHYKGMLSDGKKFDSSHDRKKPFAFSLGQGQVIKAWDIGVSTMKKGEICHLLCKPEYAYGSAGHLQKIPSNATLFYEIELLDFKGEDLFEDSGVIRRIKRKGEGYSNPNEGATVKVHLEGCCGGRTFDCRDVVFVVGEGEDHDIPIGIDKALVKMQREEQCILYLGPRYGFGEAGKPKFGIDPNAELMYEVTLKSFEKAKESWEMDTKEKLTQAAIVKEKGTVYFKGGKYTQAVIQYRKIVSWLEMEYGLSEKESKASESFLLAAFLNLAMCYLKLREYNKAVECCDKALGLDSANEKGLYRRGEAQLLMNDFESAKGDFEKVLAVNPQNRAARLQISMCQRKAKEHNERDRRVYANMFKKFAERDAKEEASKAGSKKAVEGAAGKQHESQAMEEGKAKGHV

T5: GST-Fkbp5-Δ2 (UniProt Q64378 1-456, deletion of amino acids 165-251)
T5 sequence (looked up): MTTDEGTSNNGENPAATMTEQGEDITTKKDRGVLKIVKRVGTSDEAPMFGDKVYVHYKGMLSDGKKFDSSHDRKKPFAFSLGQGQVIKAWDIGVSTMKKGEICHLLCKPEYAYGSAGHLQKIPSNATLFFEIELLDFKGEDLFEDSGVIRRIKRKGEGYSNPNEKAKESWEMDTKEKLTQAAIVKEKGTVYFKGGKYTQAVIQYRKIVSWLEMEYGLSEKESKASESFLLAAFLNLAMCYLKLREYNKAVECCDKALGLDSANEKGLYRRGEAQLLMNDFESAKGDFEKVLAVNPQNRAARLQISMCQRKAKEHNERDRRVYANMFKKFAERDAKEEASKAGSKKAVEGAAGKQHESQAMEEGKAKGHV


Legend:
Assay in all cases: pull-down
GST-Fkbp5 = target: T1, GST-Fkbp5
GST-Fkbp5-W90L = target: T2, GST-Fkbp5-W90L
GST-Fkbp5-Δ1 = target: T3, GST-Fkbp5-Δ1
GST-Fkbp5-F130Y = target: T4, GST-Fkbp5-F130Y
GST-Fkbp5-Δ2 = target: T5, GST-Fkbp5-Δ2

Binder	binding result (GST-Fkbp5)	binding result (GST-Fkbp5-W90L)	binding result (GST-Fkbp5-Δ1)	binding result (GST-Fkbp5-F130Y)	binding result (GST-Fkbp5-Δ2)
Cdk4-Δ1-6×His (domain or fragment, UniProt P30285 101-303, looked up) RTYLDKAPPPGLPVETIKDLMRQFLSGLDFLHANCIVHRDLKPENILVTSNGTVKLADFGLARIYSYQMALTPVVVTLWYRAPEVLLQSTYATPVDMWSVGCIFAEMFRRKPLFCGNSEADQLGKIFDLIGLPPEDDWPREVSLPRGAFAPRGPRPVQSVVPEMEESGAQLLLEMLTFNPHKRISAFRALQHSYLHKEESDAE	binds				
Cdk4-Δ2-6×His (natural protein, UniProt P30285 1-303, looked up) MAATRYEPVAEIGVGAYGTVYKARDPHSGHFVALKSVRVPNGGAAGGGLPVSTVREVALLRRLEAFEHPNVVRLMDVCATSRTDRDIKVTLVFEHIDQDLGCIFAEMFRRKPLFCGNSEADQLGKIFDLIGLPPEDDWPREVSLPRGAFAPRGPRPVQSVVPEMEESGAQLLLEMLTFNPHKRISAFRALQHSYLHKEESDAE	binds				

Second part, the binder after the results:

binding result (GST-Fkbp5)	binding result (GST-Fkbp5-W90L)	binding result (GST-Fkbp5-Δ1)	binding result (GST-Fkbp5-F130Y)	binding result (GST-Fkbp5-Δ2)	Binder
binds	binds	binds	binds	binds	Cdk4-6×His (natural protein, UniProt P30285 1-303, looked up) MAATRYEPVAEIGVGAYGTVYKARDPHSGHFVALKSVRVPNGGAAGGGLPVSTVREVALLRRLEAFEHPNVVRLMDVCATSRTDRDIKVTLVFEHIDQDLRTYLDKAPPPGLPVETIKDLMRQFLSGLDFLHANCIVHRDLKPENILVTSNGTVKLADFGLARIYSYQMALTPVVVTLWYRAPEVLLQSTYATPVDMWSVGCIFAEMFRRKPLFCGNSEADQLGKIFDLIGLPPEDDWPREVSLPRGAFAPRGPRPVQSVVPEMEESGAQLLLEMLTFNPHKRISAFRALQHSYLHKEESDAE
binds					Cdk4-Δ3-6×His (domain or fragment, UniProt P30285 1-200, looked up) MAATRYEPVAEIGVGAYGTVYKARDPHSGHFVALKSVRVPNGGAAGGGLPVSTVREVALLRRLEAFEHPNVVRLMDVCATSRTDRDIKVTLVFEHIDQDLRTYLDKAPPPGLPVETIKDLMRQFLSGLDFLHANCIVHRDLKPENILVTSNGTVKLADFGLARIYSYQMALTPVVVTLWYRAPEVLLQSTYATPVDMWSV
